# Measurements: the nanobody polyreactivity screen of Harvey et al. (2022)
# Assay: yeast display, Sf9 membrane polyspecificity reagent, FACS + sequencing; frameworks hold sequencing errors
# Outline: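 Polyreactivity labels are assigned by the sorting gate from which each nanobody was recovered. The gates were low and high (top ~1%), set on anti-HA fluorescence for expression and streptavidin fluorescence for reagent binding. Before sorting, galactose-induced (36–48 hours) yeast display cells were stained for 1 hour at 4 °C with 10% biotinylated, detergent-solubilized Sf9 membrane reagent.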
sequence,measurement,value
QVQLVESGGGLVQAGGSLRLNCAASGSIFVLYAMGWYRQAPRKERELVAAIRSTGSTNYADSVKGRFTISRDNAKNTVYLQMNSLKPEDTAVYYCAAYRRRTYAVNKEGGYWGQGTQVTVSS,polyreactivity (PSR sort gate),high polyreactivity
QVQLVESGGGVVQAGGSLRLSCAASGLIFYLYAMGWYRQAPGKERELVAGITSGGGSTYYADSVKGRFTISRDNAQNTVYLQMNSLKPEDTAVDDCAARLVLYITVVYEDDYWGQGTQGTVSS,polyreactivity (PSR sort gate),low polyreactivity
QVQLVESGGGLVQAGGSLRLSCAASGIIFRPYAMGWYRQAPGKERELVAAISRGGRTKYADSVKGRFTISRDNAKNTVYLQMNSLKPEDTAVYYCAAQFRFTRLVGVAAEYDYGGQGTQVTVSS,polyreactivity (PSR sort gate),low polyreactivity
QVQLVESGGGLVQAGGSLRLSCAASGSTFLLNAMGWYRQAPGKERELVAAITWNGGSTYYADSVKGRFTISRDNAKNTVYLQMNSLKPEDTAVYYCAADWSWQWRYGYDYWGQGTQVTVSS,polyreactivity (PSR sort gate),low polyreactivity
QVHSVESGGGLVQAGGSLRLSCSASGIIFYSYAMGWYRQAPGKERELVAGITIVGSTIYADSVKGRFTISRDNPKTTVYLQMISLKAEATAVYYCNKADLHFIEMDYWGQATQVTVSS,polyreactivity (PSR sort gate),low polyreactivity
QVQLVESGGGLVQAGGSLRLSCDDSGGIFGFYSMGWYRQAPGKERELVAAISGDGGSTYYADSVKGRFTISRDNATNTVYLQMNSLKPEDTAVYYCTAAFFTEYYQGDYWGQGTQVTVSS,polyreactivity (PSR sort gate),low polyreactivity
QVQLVESGGGLVQAGGSLRLICAASGRIFITNTMGWYRQAPGKETELVAAISRTGGSTYYADSVKGRFTISRDNAKNTVYLQMNSLKPEDTAVYFCNAVVRGYAQGAGFDYWGQGTQVTVSS,polyreactivity (PSR sort gate),high polyreactivity
QVKLVESGGGLVQAGGSLRLSCAASGIIFQYYAMGWYRQAPGKESELVAAISWSGGSTYYADSVKGRFTISRDNAKNTVYLQMNSLKPEDTAVYYCAARSRSYWPYEGYYWGQGTQVTVSS,polyreactivity (PSR sort gate),low polyreactivity
QVQLVESGGGLVQAGGRLRLSCAASGLIFDYYAMGWYRQAPGKERELVAAISYSGGRTYYADSVKCRFTISRDNAKNTVYLQMNSLKPEDTAVYYCNKVVLQPVIVDHDYWGQGTQVTVSS,polyreactivity (PSR sort gate),low polyreactivity
QVQLVESGGGLVQAGVSLRLSCAASGGTIVGNAMGWYRQAPGKERELVAAMSTNSGSTYYADSVKGRFTISRDNAKNTVYLQMNSLKPEDTAVYYFATRNSSKRRGYYYWGQGTQVTVSS,polyreactivity (PSR sort gate),high polyreactivity
QVQLVESGGGLVQAGGRLRLSCAASGSTFLVYAMGWYRQAPGKERELVAAIDSGVSTYYADSVKGLFTISRDNAKNTVYLQMNSLKPEDTAVYYCNGYDYWGQGTQVTVSS,polyreactivity (PSR sort gate),low polyreactivity
QVQLVESGGGLVQAGGSLRLSCAASGFIFWDKAMGWYRQAPGKEWELVAAISKSGTRTYYADSVKGRFTISRDTAKKTVDLQMNSLKPEETAVYYCAAEGSGYDYYYWGQGTQVTVSS,polyreactivity (PSR sort gate),high polyreactivity
QVQLVESGGGLVQAGGSLRLSCAASGRTFFYYAMGWYRQAPGKERELVAAISGRGGRTYYADSVKGRFTISRDNAKNTVYLQMNSLKPEDTAVYYCNTRGTRIASGHYYWGQGTQVTVSS,polyreactivity (PSR sort gate),high polyreactivity
QVQLVESGGRLVQAGGSLRLSCAASGFIFRKYAMGWYRQAHGKVRELVAGIDWSGCRTYYADSVKGRFTISRDNAKNTVYLQMNSLKPEDTAVYYCNSVFRARPDYDYWGVGTQVTVSS,polyreactivity (PSR sort gate),high polyreactivity
QVQLVESGGGLVQAGGSLRLSCAASGSIFDGNAMGWYRQAPGKERELVAAITQSGCSTYYADSVKGRFTISRDNAKNTVYFQMNSLKPEDNAVYYCAADVPGVYPYDYWGQGTQVTVSS,polyreactivity (PSR sort gate),low polyreactivity
QVQLVESGGGLVQAGGSLRLSCAASGRTFTQYAMGWYRQAPGKEREFVAAINFSGSRTYYADSVKGRFTISRDNAKNTVYLQMNSLKPEDTAVYYCNKRGSVYTSSQRQHDYWGQGTQVTVSS,polyreactivity (PSR sort gate),low polyreactivity
QVQLVESGGGLVQAGGSLRLSCAASGRTFRYYAMGWYRKAPGKERELVATISKSGGSTYYADSVKGRFTISRDNAKNTVYLQMNSLKPEDTAVYYCAAVGPYRWYDYWGQGTQVTVSS,polyreactivity (PSR sort gate),high polyreactivity
QVQLVESGGGLVQAGGSLRLSCAASGSTFWLNAMGWYRQAPGKEREFVAAITWSSGSTYYADSVKGRFTISRDNAKNTVYLQMNSLKPEDTAVYYCAADGRYVRIRGDYWGQGTQVTVSS,polyreactivity (PSR sort gate),low polyreactivity
QVQLVESGGGLVQAGGSLRLSCAASGFIFNRYAMGWYRPAPGNERELVATITRRGGRTYYADSVKGRFTISRDNAKNTVYLQMNSLKPEDTALYYCNADPNVPVETFDYWGQVTQVTVSS,polyreactivity (PSR sort gate),high polyreactivity
QVQLVESGGGLVQAGGSLRLSCAATGSIFQSYAMGWYRQAPGKERELVAAITARGTSTYYADSVKGRFTISRDNAKNTVYLQMNSLKPEETAVYYCNTDRSRSPGDVESPSDIKRDYWGQGTQVTVSS,polyreactivity (PSR sort gate),low polyreactivity
QVQLVESGGGLVQAGGSLRLSCAASGRTFQKYAMGWYRQAPGKERELVAAITGSGGSTYYADSVKGRFTISRDIAKYTVYLQMNSLKPEDTAVYYCAAYAYGVWHSQDGGNYWGQGTLVTVSS,polyreactivity (PSR sort gate),low polyreactivity
QVQLGESGGGLVQAGGSLRLSCAASGSIFQKYTMGWYRQAPGKERELVAAITRSGGSTYYADSVKGRFTISRDNAKNTVDFQMNSLKPEDTAVYYCAAPAAGDEYDYWGQVTQVTVSS,polyreactivity (PSR sort gate),high polyreactivity
QVQLVESGGGLVQAGGSLRLSCAASGSIFGINAMGWYRQAPGKERELVAGISSRGGSTYYADSVKGRFTISRDNAKNTVYLQMNSLKPEDTAVYYCAKRYGRRYGRLHDYWGQGTQVTVSS,polyreactivity (PSR sort gate),high polyreactivity
QVQLVESGGGLVQAGGSLRLSCASSGRIFSDYAMGWYRQAPGKEMEFVAAISSSGGRTYYADSVKGRFTISRDNAKNTFYLQMNSLKQEDTAVYYCNRYYGYYNTGRYGYWGQGTQVTVSS,polyreactivity (PSR sort gate),high polyreactivity
QVQLVESGGGLVQAGGSLRLSCAASGRIFYHYAMGWYRQAPGKERELVATISASGSRTSYADSVKGRFTISRDNAKNTVYLQMNSLKPEDTGVYYCAADAPFWYGLDYWGQGTQVTVSS,polyreactivity (PSR sort gate),high polyreactivity
QVQLVESGGGLVQAGGSLRLSCAASGITFVWYDMGWYRQAPGKEREFVAVISKRGGSTYYADSVKGRFTISRDNAKNTVYLQMNSLKPEDTAVYYCAASYNLYRRYYYWGQGTQVTVSS,polyreactivity (PSR sort gate),high polyreactivity
QGQRVESGGGLVQAGGSLLLSCAASGLTFAKYAMGWDRQAPGKERELVSTITWSGATTYYADSVKGRFTISRDYAKNTVYLQMNSLKPEDTAVYYCIADLPVYVDYIIGGYGYWGQGTQVTVSS,polyreactivity (PSR sort gate),low polyreactivity
QVQLVESGGGLVQAGGSLRLSCAASGSTVYHNAMGRYRQAPGKERELVAAITWSGSRTYYADSVKGRFTISRDNAKNTVYLQMNSLKPEDTAVYYCAARDYWGQGTQVTVSS,polyreactivity (PSR sort gate),high polyreactivity
QVQLVQSGGGLVQAGGRLRLSCAASGRIFYYYTMGWYRQAPGKERELVAVISRSGDRTYYADSVKGRFTISRDIAKNTVYLQMNSLKPEDTAVYYCATRWSSARMDYCGQGTQVTVSS,polyreactivity (PSR sort gate),high polyreactivity
QVQLVESGGGLVQAGASLRLSCAASGSTLWYYAMGWYRQAPGKERELVADITSSGNTNYADSVKGRFTISRDNAKNTVYLQMNSLKPEDTAVYYCAADSANYQWYLSWQKDDYWGQGTKVTVSS,polyreactivity (PSR sort gate),low polyreactivity
QVQLVESGGGLVQAGGSLRLSCAASGNILRYAMGWYRQAPGKERELVARISWRGGSTYYADSVKGRFTISRDNAKNTVYLQMNSLKPEDTAVYYCNKAYLGGGWQKTYDYWGQGTQVTVSS,polyreactivity (PSR sort gate),high polyreactivity
QVQLVESGGGLVQAGGSLRLSCAASGFISRYYGMGWYRQAPGKERELVAAISWSGGRTHYADSVKGRFTISRDNAKNTVYLQMNSLKPEDTAVYYCATDRYYRPGGEYDYWGQGTQVTVSS,polyreactivity (PSR sort gate),high polyreactivity
QGQLVESGGGLVQAGGSRRLSCAASGFIYFNAMGWSRQAPGKEREMVASISYSGGSTYYADSVKGRFTISRDNAKNTVYLQMNSLKPEDTAVYYCAKAFIEPGYKYDSWGQGTQVTVSS,polyreactivity (PSR sort gate),high polyreactivity
QVQLVESGGGLVQAGGSLRLSCAASGRIIKYYTMGWYRQAPGKERELVASITGTGGSTYYADSVKGRFTISRDNAKNTVYLQMNSLKPEDTAVYYCAARLSVLGGYRGRNAWRFDHWGQGTQVTVSS,polyreactivity (PSR sort gate),high polyreactivity
QVQLVESGGGLVQAGGSLRLSCAASGSILVNMGWYRQPPGKERELVAAIRYGGGRTYYADSVKGRFTISRDNAKNTVYLQMNSLKPEDTAVYYCAASQGRSYYYWGQGTQVTVSS,polyreactivity (PSR sort gate),low polyreactivity
QVQLVESGGGLVQAGGSLRLSCAASGIIFTLYAMGWYRQAPGKERELVATISTGGGTYYADSVKGRFTISRDNAKNTVYLQMNSLKPEDTAVYYCAAKRYWNFRYDYWGQGTQVTVSS,polyreactivity (PSR sort gate),high polyreactivity
QVHLVESGGGLVQAGGSLRLSCAASGYIFRWYAMGWYRQAPGKEREFVASISKRGGSTYYADSVKGRFTISRDNAKNTVYLQMNSLKPEDTAVYYCARTPSPLLYSYDYWGQGTQVTVSS,polyreactivity (PSR sort gate),high polyreactivity
QVQLVESGGGLVQAGGSLRLSCAASGSTFYWNAMGWYRQAPGKESEFVARISSRGGSTYYADSVKGRFTISRDNAKNTVYLQMNSLKPEDTAVYYCAARLRRTQTYSSGRPGDYWGQGTQVTVSS,polyreactivity (PSR sort gate),high polyreactivity
QVQLVESGGGLVQAGGSLRLSCAASGFTFDYNAMGWYRQAPGKERELVAVISSSGSRTYYADSVKGRFTISRDIAKITVYLQINSLNPEDTAVYYCAAARIGTRDYWGQGTQVSVSS,polyreactivity (PSR sort gate),high polyreactivity
QVQLVESGGGLVQAGGSLRLSCAASGRIFDFNAMGWYRQAPGKEREFVAAIRTSGGDSTYYADSVKGRFTISRDNEKNTVYLQMNSLKPEDTAVYYCAKTVWWYYRYPFDYWGQGTQVTVSS,polyreactivity (PSR sort gate),low polyreactivity
QVQLVESGGGLVQAGGSLRLSCAASGRILTSNAMGWYRKAPGKERELVAAISWSGGSTYYADSVKGRFTISRENAKNSVYLHMNRLKPEDTAGYYCAAPFTTTFDYWGQGTQVTVSS,polyreactivity (PSR sort gate),low polyreactivity
QVQLVESGGGLVQAGGSLGLSCAASGRTFFDYAMGWYRQAPGKERELVAAINWSGGRTYYADSVKGRFSISRDNAKNTVYLQMNSLKPEDTAVYDCNVYTRGRYEYWGQGTQVTVSS,polyreactivity (PSR sort gate),low polyreactivity
QVQLVESGGGLVQAGGSLRLSCAASGSTFEGNVMGWDRQATGKERELVATITGSGGRTYADSVKGRFTISRDNAKNTVYLQMNSLKPEDTAVYYCYAVSTASDEYDYWGQGTQVTVSS,polyreactivity (PSR sort gate),low polyreactivity
